The results in this text go back to article PMC10246912.

This assay concerns the target human angiotensin-converting enzyme 2 receptor (hACE2) (human) (UniProt Q9BYF1). Put plainly: SPR. In general terms: Surface plasmon resonance follows binding to a sensor surface in real time, without labels.

For orientation: Kd means the free concentration of one partner at which half of the binding sites on the other are occupied at equilibrium, for simple one-to-one binding. For “S-2P (prefusion-stabilised SARS-CoV-2 spike with K986P and V987P) (domain or fragment)”, the Kd turned out to be 0.2 nM.
